Data from IntAct's records for PubMed 25684205.

B1: Kelch repeat and BTB domain-containing protein 6 (Homo sapiens), Q86V97 (parent)
chain: MQSREDAPRSRRLASPRGGKRPKKIHKPTVSAFFTGPEELKDTAHSAALLAQLKSFYDARLLCDVTIEVVTPGSGPGTGRLFPCNRNVLAAACPYFKSMFTGGMYESQQASVTMHDVDAESFEVLVDYCYTGRVSLSEANVERLYAASDMLQLEYVREACASFLARRLDLTNCTAILKFADAFGHRKLRSQAQSYIAQNFKQLSHMGSIREETLADLTLAQLLAVLRLDSLDVESEQTVCHVAVQWLEAAPKERGPSAAEVFKCVRWMHFTEEDQDYLEGLLTKPIVKKYCLDVIEGALQMRYGDLLYKSLVPVPNSSSSSSSSNSLVSAAENPPQRLGMCAKEMVIFFGHPRDPFLCCDPYSGDLYKVPSPLTCLAHTRTVTTLAVCISPDHDIYLAAQPRTDLWVYKPAQNSWQQLADRLLCREGMDVAYLNGYIYILGGRDPITGVKLKEVECYNVKRNQWALVAPLPHSFLSFDLMVIRDYLYALNSKRMFCYDPSHNMWLKCVSLKRNDFQEACVFNEEIYCICDIPVMKVYNPVRAEWRQMNNIPLVSETNNYRIIKHGQKLLLITSRTPQWKKNRVTVYEYDIRGDQWINIGTTLGLLQFDSNFFCLSARVYPSCLEPGQSFLTEEEEIPSESSTEWDLGGFSEPDSESGSSSSLSDDDFWVRVAPQ
B2: Kelch repeat and BTB domain-containing protein 7 (Homo sapiens), Q8WVZ9 (parent)
chain: MQSREDVPRSRRLASPRGGRRPKRISKPSVSAFFTGPEELKDTAHSAALLAQLKSFYDARLLCDVTIEVVTPGSGPGTGRLFSCNRNVLAAACPYFKSMFTGGMYESQQASVTMHDVDAESFEVLVDYCYTGRVSLSEANVQRLYAASDMLQLEYVREACASFLARRLDLTNCTAILKFADAFDHHKLRSQAQSYIAHNFKQLSRMGSIREETLADLTLAQLLAVLRLDSLDIESERTVCHVAVQWLEAAAKERGPSAAEVFKCVRWMHFTEEDQDYLEGLLTKPIVKKYCLDVIEGALQMRYGDLLYKSLVPVPNSSSSSSSSNSLVSAAENPPQRLGMCAKEMVIFFGHPRDPFLCYDPYSGDIYTMPSPLTSFAHTKTVTSSAVCVSPDHDIYLAAQPRKDLWVYKPAQNSWQQLADRLLCREGMDVAYLNGYIYILGGRDPITGVKLKEVECYSVQRNQWALVAPVPHSFYSFELIVVQNYLYAVNSKRMLCYDPSHNMWLNCASLKRSDFQEACVFNDEIYCICDIPVMKVYNPARGEWRRISNIPLDSETHNYQIVNHDQKLLLITSTTPQWKKNRVTVYEYDTREDQWINIGTMLGLLQFDSGFICLCARVYPSCLEPGQSFITEEDDARSESSTEWDLDGFSELDSESGSSSSFSDDEVWVQVAPQRNAQDQQGSL

Variants of: B1
Conditions: with tiam1_human TIAM1, Q13009
Target sequence in this assay (Q13009 whole entry): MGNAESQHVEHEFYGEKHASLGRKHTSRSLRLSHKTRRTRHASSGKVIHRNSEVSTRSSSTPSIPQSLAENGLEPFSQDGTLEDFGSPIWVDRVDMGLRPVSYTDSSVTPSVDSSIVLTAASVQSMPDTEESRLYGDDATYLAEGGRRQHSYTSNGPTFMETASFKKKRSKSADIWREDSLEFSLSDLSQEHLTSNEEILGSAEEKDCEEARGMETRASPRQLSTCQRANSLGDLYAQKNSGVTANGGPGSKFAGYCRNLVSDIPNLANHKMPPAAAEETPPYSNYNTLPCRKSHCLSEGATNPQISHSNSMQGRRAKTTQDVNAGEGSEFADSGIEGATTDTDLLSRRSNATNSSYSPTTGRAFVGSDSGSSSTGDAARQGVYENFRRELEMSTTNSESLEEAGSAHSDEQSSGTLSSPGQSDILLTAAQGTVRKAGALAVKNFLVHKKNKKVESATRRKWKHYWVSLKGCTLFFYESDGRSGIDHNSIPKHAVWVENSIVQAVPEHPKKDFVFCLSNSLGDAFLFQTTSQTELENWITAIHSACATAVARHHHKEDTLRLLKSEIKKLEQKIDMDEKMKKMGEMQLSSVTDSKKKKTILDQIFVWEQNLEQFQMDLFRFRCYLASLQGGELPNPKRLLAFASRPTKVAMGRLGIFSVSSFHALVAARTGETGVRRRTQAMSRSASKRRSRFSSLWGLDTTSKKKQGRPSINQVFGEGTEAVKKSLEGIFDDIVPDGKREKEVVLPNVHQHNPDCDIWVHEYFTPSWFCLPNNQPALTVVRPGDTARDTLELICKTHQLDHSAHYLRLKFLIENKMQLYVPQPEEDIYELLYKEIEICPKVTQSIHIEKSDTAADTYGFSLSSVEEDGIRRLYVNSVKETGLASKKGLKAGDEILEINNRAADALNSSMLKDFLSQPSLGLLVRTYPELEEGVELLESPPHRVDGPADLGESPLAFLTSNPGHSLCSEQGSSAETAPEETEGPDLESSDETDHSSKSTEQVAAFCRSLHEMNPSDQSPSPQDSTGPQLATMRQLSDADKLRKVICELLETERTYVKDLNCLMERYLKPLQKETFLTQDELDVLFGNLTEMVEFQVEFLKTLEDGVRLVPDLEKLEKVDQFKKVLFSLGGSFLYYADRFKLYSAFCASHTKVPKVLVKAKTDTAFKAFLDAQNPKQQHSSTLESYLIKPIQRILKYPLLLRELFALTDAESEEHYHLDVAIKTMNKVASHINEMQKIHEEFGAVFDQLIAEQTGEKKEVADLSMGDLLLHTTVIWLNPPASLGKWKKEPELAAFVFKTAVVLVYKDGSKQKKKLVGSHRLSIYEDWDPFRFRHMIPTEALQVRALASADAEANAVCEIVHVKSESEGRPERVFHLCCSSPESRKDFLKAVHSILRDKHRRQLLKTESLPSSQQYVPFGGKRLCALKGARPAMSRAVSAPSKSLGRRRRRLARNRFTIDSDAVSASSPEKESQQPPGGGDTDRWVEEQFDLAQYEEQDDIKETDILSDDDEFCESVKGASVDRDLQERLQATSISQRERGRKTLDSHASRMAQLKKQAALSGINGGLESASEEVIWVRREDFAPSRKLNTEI

Row | effect of a mutation on the interaction | Variant
1 | decreasing interaction strength | W668A

Variants of: B1
Conditions: with cul3_human CUL3, Q13618

Row | effect of a mutation on the interaction | Variant
2 | disrupting interaction strength | M99A

Variants of: B2
Conditions: with tiam1_human TIAM1, Q13009
Target sequence in this assay (Q13009 whole entry): as above

Row | effect of a mutation on the interaction | Variant
3 | with no effect | M99A
4 | decreasing interaction strength | W668A

Variants of: B2
Conditions: with cul3_human CUL3, Q13618

Row | effect of a mutation on the interaction | Variant
5 | disrupting interaction strength | M99A

Variants of: B2
Conditions: with gbrap_human GABARAP

Row | effect of a mutation on the interaction | Variant
6 | with no effect | Y559A
7 | decreasing interaction strength | W668A
8 | with no effect | F122A
9 | with no effect | F649A

Variants of: B2
Conditions: with gbrl2_human GABARAPL2, P60520
gbrl2_human GABARAPL2, P60520, sequence (P60520 whole entry): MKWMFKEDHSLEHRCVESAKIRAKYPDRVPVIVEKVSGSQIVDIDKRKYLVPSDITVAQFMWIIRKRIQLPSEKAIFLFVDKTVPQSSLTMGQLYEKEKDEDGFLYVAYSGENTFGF

Row | effect of a mutation on the interaction | Variant
10 | with no effect | Y559A
11 | with no effect | W668A
12 | with no effect | F122A
13 | with no effect | F649A

Variants of: B2
Conditions: with mlp3b_human MAP1LC3B

Row | effect of a mutation on the interaction | Variant
14 | with no effect | Y559A
15 | disrupting interaction strength | W668A
16 | with no effect | F122A
17 | with no effect | F649A
